# Results published in the RNAGym collection of RNA variant scans (doi:10.1093/molbev/msab373).
# B1: Azoarcus group I ribozyme (parent)
# chain: GUGCCUUGCGCCGGGAAACCACGCAAGGGAUGGUGUCAAAUUCGGCGAAACCUAAGCGCCCGCCCGGGCGUAUGGCAACGCCGAGCCAAGCUUCGGCGCCUGCGCCGAUGAAGGUGUAGAGACUAGACGGCACCCACCUAAGGCAAACGCUAUGGUGAAGGCAUAGUCCAGGGAGUGGCGAAAGUCACACAAACCGG
# Variants of: B1
# Experiment: reverse-splicing fitness (ratio to wild type); higher = more active; in vitro selection; Mg2+ level not given
# How it was run: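 An in vitro group I ribozyme library with randomized positions was T7-transcribed and gel-purified. In triplicate, 10 pmol RNA in EPPS pH 7.5 was reacted with 50 pmoles of a 30-nt RNA substrate for 1 h at 37 °C across several added MgCl2 levels (1–48 mM), then stopped with EDTA. Products were reverse transcribed from a substrate-complementary primer, PCR-amplified and sequenced (HiSeq 4000). Fitness is a variant's read proportion after selection over that before, normalised to wild type.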
row,Variant,reverse-splicing fitness
1,C82A A111C A145G C150U U176A,0.0494
2,C82A A111C A145U C150A C169A U176C,0.0143
3,C82A A111C A145U C150A C169A U176G,0.00891
4,C82A A111C A145U C150A C169A U176A,0.0148
5,C82A A111G A120C A145U C150A U176A,0.012
6,C82A A111G A120C A145U C150A U176G,0.00739
7,C82A A111G A120C A145U C150A U176C,0.0198
8,C82A A111C A145U C150U U176A,0.0486
9,C82A A111C A145U C150U U176C,0.0623
10,C82A A111C A145U C150U U176G,0.0141
11,C82A A111C A145U C150G U176A,0.00919
12,C82A A111C A145U C150G U176G,0.00428
13,C82A A111C A145U C150G U176C,0.0161
14,C82A A111G A120C A145C C150G C169G U176G,0.00568
15,C82A A111G A120C A145C C150G C169G U176A,0.00979
16,C82A A111G A120C A145C C150G C169G U176C,0.00812
17,C82A A111C C150G C169U U176C,0.0137
18,C82A A111C C150G C169U U176A,0.0073
19,C82A A111C C150G C169U U176G,0.00629
20,C82A A111G A120C A145G C150A C169A U176G,0.00941
21,C82A A111G A120C A145G C150A C169A U176A,0.019

row,Variant,reverse-splicing fitness
1,C82A A111G A120C A145G C150A C169A U176C,0.0211
2,C82A A111G A120C A145C C150G C169A U176C,0.0108
3,C82A A111G A120C A145C C150G C169A U176G,0.00545
4,C82A A111G A120C A145C C150G C169A U176A,0.00906
5,C82A A111C C169G U176G,0.00734
6,C82A A111C C169G U176A,0.0177
7,C82A A111C C169G U176C,0.0237
8,C82A A111C A145U C150A C169G U176C,0.022
9,C82A A111C A145U C150A C169G U176G,0.0087
10,C82A A111C A145U C150A C169G U176A,0.014
11,C82A A111G A120C A145C C150A C169U U176A,0.0138
12,C82A A111G A120C A145C C150A C169U U176C,0.011
13,C82A A111G A120C A145C C150A C169U U176G,0.00607
14,C82A A111C A145U C150G C169U U176A,0.00845
15,C82A A111C A145U C150G C169U U176G,0.00827
16,C82A A111C A145U C150G C169U U176C,0.0113
17,C82A A111C A145U C150U C169A U176A,0.014
18,C82A A111C A145U C150U C169A U176G,0.00861
19,C82A A111C A145U C150U C169A U176C,0.0146
20,C82A A111G A120C A145G C150G C169G U176A,0.0127
21,C82A A111G A120C A145G C150G C169G U176G,0.00644

row,Variant,reverse-splicing fitness
1,C82A A111G A120C A145G C150G C169G U176C,0.0115
2,C82A A111C C150G C169A U176C,0.0102
3,C82A A111C C150G C169A U176G,0.00698
4,C82A A111C C150G C169A U176A,0.00958
5,C82A A111C A145U C150G C169A U176A,0.0098
6,C82A A111C A145U C150G C169A U176G,0.00861
7,C82A A111C A145U C150G C169A U176C,0.0117
8,C82A A111C A145G C169A U176G,0.0069
9,C82A A111C A145G C169A U176C,0.029
10,C82A A111C A145G C169A U176A,0.0211
11,C82A A111C U176C,0.102
12,C82A A111C U176G,0.0172
13,C82A A111C U176A,0.0824
14,C82A A111C C150G U176G,0.00364
15,C82A A111C C150G U176A,0.0084
16,C82A A111C C150G U176C,0.0124
17,C82A A111G A120C A145C C150A C169A,0.00989
18,C82A A111G A120C A145C C150A C169U,0.00853
19,C82A A111G A120C A145C C150A C169G,0.00832
20,C82A A111C C150U C169G U176G,0.00899
21,C82A A111C C150U C169G U176A,0.013

row,Variant,reverse-splicing fitness
1,C82A A111C C150U C169G U176C,0.0175
2,C82A A111G A120C A145G C150U C169U U176C,0.0148
3,C82A A111G A120C A145G C150U C169U U176A,0.0141
4,C82A A111G A120C A145G C150U C169U U176G,0.00671
5,C82A A111C A145G C169U U176C,0.0149
6,C82A A111C A145G C169U U176A,0.0177
7,C82A A111C A145G C169U U176G,0.0073
8,C82A A111G A120C A145C C150U C169U U176G,0.00597
9,C82A A111G A120C A145C C150U C169U U176C,0.0102
10,C82A A111G A120C A145C C150U C169U U176A,0.0132
11,C82A A111G A120C A145G C150G C169U U176C,0.0117
12,C82A A111G A120C A145G C150G C169U U176G,0.00802
13,C82A A111G A120C A145G C150G C169U U176A,0.0129
14,C82A A111G A120C A145G C150A,0.0137
15,C82A A111G A120C A145G C150U,0.0349
16,C82A A111G A120C A145G C150G,0.0105
17,C82A A111C C169U U176C,0.0187
18,C82A A111C C169U U176A,0.0162
19,C82A A111C C169U U176G,0.00856
20,C82A A111G A120C A145U C150U C169U U176A,0.0144
21,C82A A111C C150A C169G U176C,0.0222
